Data from patent US20230086210A1 (Hoffmann-La Roche, published 2023).

What was measured:
[1] = target: human 4-1BB on Jurkat-hu4-1BB-NFκB-luc2 reporter cells (human, UniProt Q07011 24-255); assay: cell-based or functional assay; design: AUC of NFκB-activation-induced Luciferase activity curve: unit not given beside the values
[2] = target: T1, human PD-L1 on MKN45-huPD-L1 cells (human, UniProt Q9NZQ7 19-290); assay: flow cytometry on MKN45-huPD-L1 cells, area under the binding curve; design: unit not given beside the values
T1 construct: The entry is the complete precursor; also called MKN45-PD-L1; human PD-L1-expressing MKN45 cells

[3] = target: T1, human PD-L1 on MKN45-huPD-L1 cells; assay: flow cytometry on MKN45-huPD-L1 cells, PE-conjugated goat F(ab')2 anti-human Fcγ, geo mean of fluorescence, baseline corrected
Experimental: All values are baseline corrected by subtracting the baseline values of the blank control (e.g. no primary only secondary detection antibody).
Cells were incubated for 30 min at 4° C. and then washed twice with 80 μL/well DPBS. […] Cells were washed twice with 80 μL/well DPBS and then fixed in 30 μL/well DPBS containing 1% formaldehyde for at least 15 minutes.

Sequence of human 4-1BB on Jurkat-hu4-1BB-NFκB-luc2 reporter cells (Q07011 24-255): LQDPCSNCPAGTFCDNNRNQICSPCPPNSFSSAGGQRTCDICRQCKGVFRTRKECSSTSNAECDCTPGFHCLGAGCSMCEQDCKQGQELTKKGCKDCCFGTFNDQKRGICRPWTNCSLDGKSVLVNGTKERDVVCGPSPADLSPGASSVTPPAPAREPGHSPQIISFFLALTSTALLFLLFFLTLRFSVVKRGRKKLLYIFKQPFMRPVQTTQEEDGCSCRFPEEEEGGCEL
T1 sequence (Q9NZQ7 19-290 limits assumed): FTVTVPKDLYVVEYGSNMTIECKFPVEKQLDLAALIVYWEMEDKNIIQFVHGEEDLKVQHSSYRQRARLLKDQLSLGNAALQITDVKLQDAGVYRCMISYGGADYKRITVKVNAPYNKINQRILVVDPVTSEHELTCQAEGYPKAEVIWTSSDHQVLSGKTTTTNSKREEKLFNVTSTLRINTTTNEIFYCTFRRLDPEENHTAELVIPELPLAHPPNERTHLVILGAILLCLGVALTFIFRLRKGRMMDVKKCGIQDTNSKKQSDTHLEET

| AUC of NFκB-activation-induced Luciferase activity curve [1] | EC50 of NFκB-activation-induced Luciferase activity curve [1] [pM] | AUC [2] | binding result [3] | Binder |
| --- | --- | --- | --- | --- |
| 135000 | 37 | – | – | 4-1BB×PD-L1 2+1 (bispecific agonistic 4-1BB×PD-L1 antibody with bivalent binding to 4-1BB (clone 20H4.9) and monovalent binding to PD-L1, Head to Head 2+1 … (bispecific antibody) heavy 1: QVQLQQWGAGLLKPSETLSLTCAVYGGSFSGYYWSWIRQSPEKGLEWIGEINHGGYVTYNPSLESRVTISVDTSKNQFSLKLSSVTAADTAVYYCARDYGPGNYDWYFDLWGRGTLVTVSSASTKGPSVFPLAPSSKSTSGGTAALGCLVEDYFPEPVTVSWNSGALTSGVHTFPAVLQSSGLYSLSSVVTVPSSSLGTQTYICNVNHKPSNTKVDEKVEPKSCDKTHTCPPCPAPEAAGGPSVFLFPPKPKDTLMISRTPEVTCVVVDVSHEDPEVKFNWYVDGVEVHNAKTKPREEQYNSTYRVVSVLTVLHQDWLNGKEYKCKVSNKALGAPIEKTISKAKGQPREPQVCTLPPSRDELTKNQVSLSCAVKGFYPSDIAVEWESNGQPENNYKTTPPVLDSDGSFFLVSKLTVDKSRWQQGNVFSCSVMHEALHNHYTQKSLSLSP heavy 2: not shown light 1: not shown light 2: not shown |
| 122000 | 97 | – | – | 4-1BB×PD-L1 1+1 (bispecific antibody with monovalent binding to 4-1BB (clone 20H4.9) and monovalent binding to PD-L1) (bispecific antibody) heavy 1: QVQLQQWGAGLLKPSETLSLTCAVYGGSFSGYYWSWIRQSPEKGLEWIGEINHGGYVTYNPSLESRVTISVDTSKNQFSLKLSSVTAADTAVYYCARDYGPGNYDWYFDLWGRGTLVTVSSASTKGPSVFPLAPSSKSTSGGTAALGCLVEDYFPEPVTVSWNSGALTSGVHTFPAVLQSSGLYSLSSVVTVPSSSLGTQTYICNVNHKPSNTKVDEKVEPKSCDKTHTCPPCPAPEAAGGPSVFLFPPKPKDTLMISRTPEVTCVVVDVSHEDPEVKFNWYVDGVEVHNAKTKPREEQYNSTYRVVSVLTVLHQDWLNGKEYKCKVSNKALGAPIEKTISKAKGQPREPQVCTLPPSRDELTKNQVSLSCAVKGFYPSDIAVEWESNGQPENNYKTTPPVLDSDGSFFLVSKLTVDKSRWQQGNVFSCSVMHEALHNHYTQKSLSLSP heavy 2: not shown light 1: not shown light 2: not shown |
| 8870 | 320 | 432 | no binding (tested: 100 nM) | 4-1BB huIgG1 P329G LALA (anti-human 4-1BB clone 20H4.9 as huIgG1 P329G LALA) (antibody, V domains shown, Human IgG1 with P329G L234A L235A) VH: QVQLQQWGAGLLKPSETLSLTCAVYGGSFSGYYWSWIRQSPEKGLEWIGEINHGGYVTYNPSLESRVTISVDTSKNQFSLKLSSVTAADTAVYYCARDYGPGNYDWYFDLWGRGTLVTVSS VL: EIVLTQSPATLSLSPGERATLSCRASQSVSSYLAWYQQKPGQAPRLLIYDASNRATGIPARFSGSGSGTDFTLTISSLEPEDFAVYYCQQRSNWPPALTFGGGTKVEIK |
